Results on seven molecules are retold here after PMC12229497, “The intracellular bacterium Orientia tsutsugamushi uses the autotransporter ScaC to activate BICD adaptors for dynein-based motility” (Nature Communications, 2025).

A word on the stoichiometry N: it is a count of units in the complex or per binding partner.

Changes are numbered by the printed parent chain. Names may count otherwise.

The chains are these.
B1: ScaC passenger domain (residues 33–223), C-terminal TEV-6His (domain or fragment)
chain: VSNMNLDISNMGEAREGLRKDIAEVSKLLCMLEKSTASSKNLTMRLQQSDTRENEQSNHIRLLITEIESINKENDCLRQKNNQLKIKLHQLKVKLEQALARNTDLQQILPKSQAEMDNLRKQNEQLKIQLQQLQVKLQDLMSLQNKCSNLALINSVKLNYIRDIKYIALANIVIVKALASTFTEKLSKSNR
notes: source: SoluBL21 E. coli, purified (Ni-NTA, MonoQ, Superdex 200)
B2: ScaC-AF647 (ScaC-SNAP labelled with SNAP-Surface Alexa Fluor 647) (domain or fragment)
chain: B1 chain
modifications: Alexa Fluor 647 on the SNAP tag (SNAP-Surface Alexa Fluor 647)
notes: source: SoluBL21 E. coli, purified (Ni-NTA, MonoQ, labelling, Superdex 200)
B3: Strep-BICD2^711–800 (CC3 domain) (domain or fragment, mouse, UniProt Q921C5 711-800, looked up)
chain: YENEKAMVTETMMKLRNELKALKEDAATFSSLRAMFATRCDEYITQLDEMQRQLAAAEDEKKTLNSLLRMAIQQKLALTQRLELLELDHE
notes: also called CC3 of BICD2; not shown: Strep, N-terminal, kept
B4: Strep-BICD2^711–800 L742A/L786A (domain or fragment, mouse, UniProt Q921C5 711-800, looked up)
chain: B3 chain with L32A, L76A
notes: also called double L742A/L786A mutant; not shown: Strep, N-terminal, kept
B5: Strep-BICD2^711–800 L786A (domain or fragment, mouse, UniProt Q921C5 711-800, looked up)
chain: B3 chain with L76A
notes: not shown: Strep, N-terminal, kept
B6: Strep-BICD2^711–800 L742A (domain or fragment, mouse, UniProt Q921C5 711-800, looked up)
chain: B3 chain with L32A
notes: as for B5
B7: ScaC^50–159 (domain or fragment)
chain: LRKDIAEVSKLLCMLEKSTASSKNLTMRLQQSDTRENEQSNHIRLLITEIESINKENDCLRQKNNQLKIKLHQLKVKLEQALARNTDLQQILPKSQAEMDNLRKQNEQLK
notes: source: SoluBL21 E. coli, purified (StrepTactin, Superdex 200)

Data set [1] concerns the target T1, BICD2, full-length mouse (mouse, UniProt Q921C5 1-820).
T1 construct: also called full-length BICD2
Nature of the data set: SEC-MALS; 1 mg/mL, Superose 6 10/300, GF150 buffer, 0.5 ml/min. Particulars: both partners purified. In general terms: In gel filtration, larger molecules generally elute earlier.

Data set [2] concerns the molecule itself. The data set is described as above.
Data set [3] addresses T2, BICD2-AF488 (BICD2-SNAP labelled with SNAP-Surface Alexa Fluor 488) (mouse, UniProt Q921C5 1-820, Alexa Fluor 488 on the SNAP tag (SNAP-Surface Alexa Fluor 488)).
T2 construct: also called BICD2-488; not shown: SNAP, C-terminal, kept
Nature of the data set: single-molecule TIRF dual-colour co-migration on microtubules. Particulars: both partners purified.

The target of data set [4] is B1. Nature of the data set: SEC; reconstitution: BICD2 and ScaC constructs mixed in a 1:2 molar ratio, 15 min on ice, Superose 6 Increase 3.2/300 in GF150 buffer; fractions on SDS-PAGE. To be noted: both partners purified.
The target of data set [5] is T3, RAB6^Q72L (GTP-locked RAB6 mutant) (human, UniProt P20340 1-208, Q72L).
T3 construct: source: SoluBL21 E. coli, purified (Glutathione Sepharose, GST cleaved, Superose 6, with 10 μM GTP); not shown: GST, N-terminal, cleaved
T3 sequence (P20340 whole entry Q72L): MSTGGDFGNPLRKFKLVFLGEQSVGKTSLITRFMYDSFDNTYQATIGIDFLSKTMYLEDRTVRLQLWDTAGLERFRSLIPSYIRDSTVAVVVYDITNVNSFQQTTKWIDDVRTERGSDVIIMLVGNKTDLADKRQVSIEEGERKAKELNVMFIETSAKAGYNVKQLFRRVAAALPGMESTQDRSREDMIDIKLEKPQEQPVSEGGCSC
Nature of the data set: pull-down. Particulars: both partners purified.

Data set [6] has as its target T4, GCN4-RANBP2^min (RANBP2 residues 2148–2240 fused to an N-terminal GCN4 dimerization tag) (human, UniProt P49792 2148-2240).
T4 construct: not shown: GCN4 dimerization tag, N-terminal, kept
Nature of the data set: pull-down. Particulars: both partners purified.

Data set [7] deals with B1. Nature of the data set: pull-down. To be noted: both partners purified.
Data set [8] deals with T1, BICD2, full-length mouse. Nature of the data set: SEC; reconstitution: BICD2 and ScaC constructs mixed in a 1:2 molar ratio, 15 min on ice, Superose 6 Increase 3.2/300 in GF150 buffer; fractions on SDS-PAGE. Particulars: both partners purified.

T1 sequence (Q921C5 whole entry): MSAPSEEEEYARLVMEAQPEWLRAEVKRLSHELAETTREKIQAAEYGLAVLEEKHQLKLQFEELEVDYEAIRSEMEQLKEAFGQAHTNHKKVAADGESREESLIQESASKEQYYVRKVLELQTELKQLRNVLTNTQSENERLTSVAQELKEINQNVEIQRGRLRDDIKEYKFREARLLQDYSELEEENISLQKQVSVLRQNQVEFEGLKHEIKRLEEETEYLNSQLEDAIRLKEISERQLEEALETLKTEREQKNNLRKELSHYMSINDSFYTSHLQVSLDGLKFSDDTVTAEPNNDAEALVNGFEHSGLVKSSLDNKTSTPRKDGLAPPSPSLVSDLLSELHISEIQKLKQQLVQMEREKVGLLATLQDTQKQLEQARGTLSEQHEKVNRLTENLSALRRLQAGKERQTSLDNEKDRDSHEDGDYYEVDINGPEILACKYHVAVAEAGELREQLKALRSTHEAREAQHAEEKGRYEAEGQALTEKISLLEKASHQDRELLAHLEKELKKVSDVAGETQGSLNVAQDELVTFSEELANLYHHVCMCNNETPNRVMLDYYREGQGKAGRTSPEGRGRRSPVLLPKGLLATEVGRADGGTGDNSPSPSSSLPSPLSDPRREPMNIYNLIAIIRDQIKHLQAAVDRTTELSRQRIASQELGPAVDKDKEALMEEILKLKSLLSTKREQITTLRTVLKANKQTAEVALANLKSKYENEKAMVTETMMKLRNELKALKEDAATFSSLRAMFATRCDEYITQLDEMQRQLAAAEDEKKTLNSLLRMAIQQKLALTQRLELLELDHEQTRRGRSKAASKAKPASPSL
T2 sequence (Q921C5 whole entry): as above
T4 sequence (P49792 2148-2240): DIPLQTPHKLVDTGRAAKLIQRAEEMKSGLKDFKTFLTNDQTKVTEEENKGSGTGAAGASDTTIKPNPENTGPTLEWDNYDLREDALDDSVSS

For B1, the results for the “stoichiometry N” value in data set [1] and in data set [2] were 1 ScaC:BICD2 (2:2) and 2, respectively.

On to B2, for which, in data set [3], the binding result is given as “binds”.

As for B3, the binding result in data set [4], in data set [5] and in data set [6] was “binds” in each case.

As for B4, the binding result in data set [7] is reported as “binds”.

In the case of B5, the binding result in data set [7] was “binds”.

B6: in data set [7], the binding result is given as “binds”.

As to B7, in data set [8], the binding result is listed as “binds”.
